Results as given in IntAct's records for PubMed 25117710.

B1: Protein C-ets-1 (Homo sapiens), P14921-1 (parent)
chain: MKAAVDLKPTLTIIKTEKVDLELFPSPDMECADVPLLTPSSKEMMSQALKATFSGFTKEQQRLGIPKDPRQWTETHVRDWVMWAVNEFSLKGVDFQKFCMNGAALCALGKDCFLELAPDFVGDILWEHLEILQKEDVKPYQVNGVNPAYPESRYTSDYFISYGIEHAQCVPPSEFSEPSFITESYQTLHPISSEELLSLKYENDYPSVILRDPLQTDTLQNDYFAIKQEVVTPDNMCMGRTSRGKLGGQDSFESIESYDSCDRLTQSWSSQSSFNSLQRVPSYDSFDSEDYPAALPNHKPKGTFKDYVRDRADLNKDKPVIPAAALAGYTGSGPIQLWQFLLELLTDKSCQSFISWTGDGWEFKLSDPDEVARRWGKRKNKPKMNYEKLSRGLRYYYDKNIIHKTAGKRYVYRFVCDLQSLLGYTPEELHAMLDVKPDADE

Variants of: B1
Settings: with cop1_human COP1, Q8NHY2
Chain of cop1_human COP1, Q8NHY2 (Q8NHY2 whole entry): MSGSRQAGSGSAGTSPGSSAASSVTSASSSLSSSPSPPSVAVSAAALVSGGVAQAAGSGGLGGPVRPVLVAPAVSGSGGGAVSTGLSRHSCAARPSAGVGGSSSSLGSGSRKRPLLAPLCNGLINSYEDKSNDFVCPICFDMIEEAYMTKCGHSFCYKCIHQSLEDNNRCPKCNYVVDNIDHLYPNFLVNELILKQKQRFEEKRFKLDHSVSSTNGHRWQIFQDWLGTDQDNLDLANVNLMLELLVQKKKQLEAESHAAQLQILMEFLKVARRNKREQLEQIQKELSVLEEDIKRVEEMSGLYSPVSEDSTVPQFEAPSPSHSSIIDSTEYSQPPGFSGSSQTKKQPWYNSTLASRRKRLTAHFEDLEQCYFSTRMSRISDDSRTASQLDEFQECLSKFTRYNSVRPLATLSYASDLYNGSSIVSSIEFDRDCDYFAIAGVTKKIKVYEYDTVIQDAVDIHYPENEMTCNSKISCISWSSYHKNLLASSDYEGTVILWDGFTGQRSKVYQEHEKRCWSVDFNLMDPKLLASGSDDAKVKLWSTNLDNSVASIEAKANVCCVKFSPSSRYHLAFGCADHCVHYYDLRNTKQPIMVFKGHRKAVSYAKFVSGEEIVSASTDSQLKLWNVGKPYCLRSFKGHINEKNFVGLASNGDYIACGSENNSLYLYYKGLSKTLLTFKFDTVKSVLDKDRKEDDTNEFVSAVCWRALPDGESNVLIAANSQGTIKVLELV

Effect of a mutation on the interaction, increasing interaction strength:
S282D;Y283F
Y283F
S282A;Y283F
